Earlier results, collected in article PMC5431918 (Scientific Reports, 2017).

Source text: As PAC1, VPAC1 and VPAC2 mRNAs were detected in a rat insulinoma cell line with PAC1 binding prevailing over that of VPAC1 and VPAC2[23], the PAC1 receptor seemed to be a promising alternative for targeting insulinomas. The natural mammalian ligands at the PAC1 receptor are PACAP38 and the truncated form PACAP27. They bind to PAC1, ...

PACAP27: truncated form of PACAP38; non-selective PAC1/VPAC1/VPAC2 ligand
Stability in plasma: unstable in plasma

PACAP38: natural mammalian ligand at the PAC1 receptor; non-selective PAC1/VPAC1/VPAC2 ligand
Stability in plasma: unstable in plasma
